This is an account of results in paper PMC3542820.

The target of this data set is T1, Rfa2-His from WT cells (HT41), dephosphorylated G1 form (Candida albicans, UniProt Q59Z33 1-272).
T1 sequence: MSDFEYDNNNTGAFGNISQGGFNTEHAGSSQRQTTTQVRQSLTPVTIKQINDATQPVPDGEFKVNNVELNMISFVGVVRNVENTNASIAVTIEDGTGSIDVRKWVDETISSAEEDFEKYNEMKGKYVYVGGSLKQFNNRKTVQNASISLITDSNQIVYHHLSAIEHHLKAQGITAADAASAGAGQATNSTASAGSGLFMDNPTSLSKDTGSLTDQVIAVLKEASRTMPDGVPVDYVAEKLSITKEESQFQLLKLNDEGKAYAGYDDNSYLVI
Nature of the data set: EMSA. (In general: In EMSA bound probe runs differently from free probe, usually more slowly.)

B1: FITC-dsDNA 30 bp (dsDNA)
DNA 1: CCCCTCTCCTTCTTGGCCTCTTCCTTCCCC
DNA 2: GGGGAAGGAAGAGGCCAAGAAGGAGAGGGG
As for B1, the binding result is “binds”.
